# According to patent US20200247855A1, “THERAPY AND DIAGNOSTICS” (OXFORD UNIVERSITY INNOVATION LIMITED, priority 2017, published 2020):
# Residue numbers refer to the chain shown, from its start. Names may count otherwise. “Also recorded” adds a separate entry of the source.
# T1: CCL8_HUMAN (Homo sapiens, UniProt P80075)
# T1 sequence (P80075 24-99): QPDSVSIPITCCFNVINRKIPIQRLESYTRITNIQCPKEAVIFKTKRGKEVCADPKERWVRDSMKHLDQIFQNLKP
# T2: CCL14_HUMAN (Homo sapiens, UniProt Q16627)
# T2 sequence (Q16627 20-93): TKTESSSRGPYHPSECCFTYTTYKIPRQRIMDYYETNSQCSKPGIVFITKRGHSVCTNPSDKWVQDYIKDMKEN
# T3: CCL3_HUMAN (Homo sapiens, UniProt P10147)
# T3 sequence (P10147 24-92): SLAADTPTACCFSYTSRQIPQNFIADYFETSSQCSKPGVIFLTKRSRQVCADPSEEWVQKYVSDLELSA
# T4: CCL4_HUMAN (Homo sapiens, UniProt P13236)
# T4 sequence (P13236 24-92): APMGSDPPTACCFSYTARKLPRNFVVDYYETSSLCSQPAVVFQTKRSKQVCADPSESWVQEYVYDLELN
# T5: CCL4L1_HUMAN (Homo sapiens, UniProt Q8NHW4)
# T5 sequence (Q8NHW4 24-92): T4 sequence (P13236 24-92) with S47G
# B1: Evasin-1 peptide encoded by EZ406190.1: Evasin-1 peptide variant K92E encoded by nucleotide sequence EZ406190.1 (protein)
# chain: EDDEDYGDLGGCPFLVAENKTGYPTIVACKQDCNGTTETAPNGTRCFSIGDEGLRRMTANLPYDCPLGQCSNGDCIPKETYEVCYRRNWRDEKN
# B2: SEQ ID NO: 82: substituted hybrid with greater extent of P672_RHIPU sequence in Evasin-1 (protein)
# chain: VCEVSEQEGVGEDNATEDEDYEDFFKPVTCYFANSTVGPLRPPNCTVVCTNNTAWWNDTKSDGGHCYSEYRPEKRTHSREIYNCTIGVCGNGDCIPKETYEVCYRRNWRDEKN
# modifications: tick CKBP sequence
# B3: SEQ ID NO: 83: substituted hybrid with greater extent of P672_RHIPU sequence in Evasin-1 (protein)
# chain: VCEVSEQEGVGEDNATEDEDYEDFFKPVTCYFANSTVGPLRPPNCTVVCTNNTAWWNDTKSDGGHCFSIGDEGLRRMTANLPYDCPLGQCSNGDCIPKETYEVCYRRNWRDEKN
# modifications: tick CKBP sequence
# B4: EVA1(P67222-32): hybrid protein: P672 (E22-F32) region swapped into the corresponding segment of EVA1_RHISA (protein)
# chain: EDDEDYEDFFKPVTCYFLVAENKTGYPTIVACKQDCNGTTETAPNGTRCFSIGDEGLRRMTANLPYDCPLGQCSNGDCIPKETYEVCYRRNWRDKKN
# modifications: EVA1 containing P672 E22-E32
# notes: hybrid protein: P672 (E22-F32) region swapped into the corresponding segment of EVA1_RHISA
# B5: P983_AMBPA: tick CKBP; named P983_AMBCA in Table 1 (protein)
# chain: EDTGTEDDFDYGNTGCPFPVLGNYKSNMTKPVGCKNKCGSGYEVLNDTTPCYVIDQKVFNNMVPLRQYSKCPLGFCENGECKPNDQAEDCYKGREEQK
# modifications: Amblyomma cajennense
# B6: P1183_AMBTR: tick CKBP, Amblyomma triste (protein)
# chain: EAPKDDFEYDGGCPFVVLDNGTHVKPAGCSHLCNGAPETLDNIECYNVTEEVAKRMTPGIPYACWLGWCSKGECKRDNRTEVCYRGSEEE
# modifications: Amblyomma triste
# B7: IRI-01: previously described tick CKBP, Ixodes ricinus (protein, listed as Ixodes ricinus)
# chain: GPAPSAKENEKAPLCLPQESLINNRDPNGCNYQLLPYFTEDGMGGGFLAIDCSKSCPEGTHETVVDGNS
# B8: IHO-01: previously described tick CKBP, Ixodes holocyclus (protein, listed as Ixodes holocyclus)
# chain: AFVSSSTEVEIGSTSEHNSNETDEYGYDYNADGLGCPVVGIGGLDNKTWHPNCTNECPNSTKLFLLENGTP
# B9: ATR-02: previously described tick CKBP, Amblyomma triste (protein)
# chain: GNEVSDPPLTDEDCEYYDPSEDNITCSIRSLNTTGRPIPVGCLATCENSTRRLHNGTECLGISDQVANRMQGNVTYTCPVGLCYRGVCQRNGLGIDCWHNTPPPNSTNVTTNASTTPLPTSSRDL
# modifications: Amblyomma triste
# B10: AMA-01: previously described tick CKBP, Amblyomma maculatum (protein, listed as Amblyomma maculatum)
# chain: ECEESDTSESTECSTEDYSNRIRDNETCFIGALNTTGHPVPVGCTLDCGNSTRYLPNGTECIDLTQQASDVMQSDVPYYCPIGLCANGICKRSGLELNCWHDMPPPVSTDTAIENPTTSISSSAKL
# B11: ACA-02: previously described tick CKBP, Amblyomma cajennense (protein)
# chain: GIEGSGNLATSHEMDDCLDDNSTCVIQTLNTTGEPRPVGCVLKCKNSTQHLANGTECLGIPELAGVRMQYNVSYTCAVGLCNAGVCERTGLWIGCWQNEPPPNSTDVTTTAPTTTTASTSSV
# modifications: Amblyomma cajennense
# B12: AAM-01: previously described tick CKBP, Amblyomma americanum (protein, listed as Amblyomma americanum)
# chain: ESEGSVSTETEVISYEDDCQDDNSTCFIQTLNTTGEPRPVGCILECENSTQRLPNGTECLGLPGLAAVKMQRNVSYTCSVGLCNGEGVCDRTGLWIGCWTNTPPPNSTNVTTKPPTTTTASPGTG
# B13: RPU-02: previously described tick CKBP, Rhipicephalus pulchellus (protein, listed as Rhipicephalus pulchellus)
# chain: CEVQNTTLAEEDYDTGCGYNIVITKNKTLVVNCTMDCQPKMLMNESEPCLFNSSVPYDHMQPHHNYTCMEGICKNGTCVSPSNNITCWLPPPPVRYYPNETMVTSTIEPEA
# Key:
# CCL8_HUMAN = target: T1, CCL8_HUMAN; test: Biolayer interferometry (BLI) binding; details: for CCL8 binding (bound or not): 300 nM or 600 nM CCL8; for Kd: read-out: Kd, CCL8_HUMAN
# Protocol: (§1) Table 1. Tick CKBPs described in PCT/GB2017/050563 and [17]. Tick peptide sequences isolated in yeast surface display fluorescent-activated cell sorting (FACS) screens using a labelled chemokine. Identity with Evasin-1, 4 or 3 was calculated using BLAST. Abbreviations: IXORI—Ixodes ricinus, RHISA—Rhipicephalus sanguineus, AMBMA—Amblyomma maculatum, AMBPA—Amblyomma parvum, AMBTR—Amblyomma triste, AMBAM—Amblyomma americanum, AMBCA—Amblyomma cajennense, RHIPU—Rhipicephalus pulchellus. Table 2A-C. Binding characteristics of tick CKBPs previously disclosed (PCT/GB2017/050563 and [17]). All members of the human chemokine family[164] are listed in column 1. Binding to human chemokines was determined for 14 tick CKBPs using biolayer interferometry (BLI) with calculated Kd shown as Molar (Moles/Litre). Binding data for 17 other novel tick CKBPs was assayed using yeast surface display[17,166],with positive binding results shown as “YES”. For biolayer interferometry, His-tagged purified tick CKBP was bound to a Ni-NINTA sensor on an OctetRed® 384 system, and then binding to each chemokine listed (with the exception of CCL25, CCL26, CXCL16, CXCL17, CXCL4L1, XCL2) was assayed in a cross-binding screen at a chemokine concentration of 300 nM as described. For those chemokines showing binding to a tick CKBP in the cross-binding screen, binding assays were repeated using different doses of chemokine. Association, equilibrium and dissociation data were analysed using Octet software to create corresponding fitted curves, and used to calculate Kd. For yeast surface display, (YSD) background fluorescence was controlled for by using either an empty vector or by omitting the chemokine (i.e. using streptavidin-Alexa647 alone). An arbitrary threshold of >3 fold over background mean fluorescence intensity was chosen to describe confirmed re-tests. Where binding was detected data are indicated as “YES”. […] For yeast surface display data, empty cells represent chemokines that were not tested. Binding data published in relation to previously described tick CKBPs (Evasins-1, 4 and 3) is also shown for comparison in each of FIGS. 2A-C, with the relevant data obtained from publications: [20-22,32]. Table 3: Neutralisation of human chemokines by tick CKBPs previously disclosed (PCT/GB2017/050563 and [17]). Neutralising activity was determined using a quantitative THP1 cell migration assay in a 96-well Boyden chamber with chemokine in the bottom chamber as described. Cells migrating through to the bottom chamber at 4 hours were counted using flow cytometry in a 96 well plate format. IC50 for neutralisation was determined at the chemokine EC80 dose as determined using a range of tick CKBP concentrations. Data was analysed using GraphPad Prism to determine IC50, which is shown as Molar (Moles/Litre). Empty cells represent experiments not done. Table 4—Other previously described tick CKBPs. Tick CKBPs that were also described in PCT/GB2017/050563 and Singh et al. are indicated in “Notes”. Table 5.—Novel tick CKBPs of the invention. Table 6. […] The peptide sequence prefix indicates the identity, and suffix indicate the tick species as follows: AMBCA, Amblyomma cajennense and IXORI, Ixodes ricinus. […] Certain tick peptides e.g. P1074_IXORI were recovered from screens performed with more than one chemokine. Individual yeast clones recovered from the library were re-tested using a FACS (fluorescence activated cell sorting), experiment. The binding of the peptide to the chemokine was assayed by measuring the percent (%), of yeast cells expressing the given peptide that exceeded a background threshold set by measuring the fluorescence of the yeast library pool treated with streptavidin-[…] alone. When more than one independent yeast clone was isolated for a given peptide-chemokine combination, the mean percent shift was calculated and reported in column 3. […]
# CCL11_HUMAN = CCL11_HUMAN (Homo sapiens, UniProt P51671); test: Biolayer interferometry (BLI) binding
# Chain of CCL11_HUMAN (P51671 24-97): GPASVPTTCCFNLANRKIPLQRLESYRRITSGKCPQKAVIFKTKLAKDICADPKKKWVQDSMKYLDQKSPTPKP
# Protocol: as §1
# CCL13_HUMAN = CCL13_HUMAN (Homo sapiens, UniProt Q99616); test: Biolayer interferometry (BLI) binding
# Chain of CCL13_HUMAN (Q99616 17-98): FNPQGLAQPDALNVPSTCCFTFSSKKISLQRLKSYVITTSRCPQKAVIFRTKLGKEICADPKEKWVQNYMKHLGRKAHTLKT
# Protocol: as §1
# CCL14_HUMAN = target: T2, CCL14_HUMAN; test: Biolayer interferometry (BLI) binding
# Protocol: as §1
# CCL2_HUMAN = CCL2_HUMAN (Homo sapiens, UniProt P13500); test: Biolayer interferometry (BLI) binding
# Chain of CCL2_HUMAN (P13500 24-99): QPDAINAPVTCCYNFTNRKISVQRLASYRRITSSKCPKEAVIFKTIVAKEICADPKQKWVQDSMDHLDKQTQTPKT
# Protocol: as §1
# CCL3L1_HUMAN = CCL3L1_HUMAN (Homo sapiens, UniProt P16619); test: Biolayer interferometry (BLI) binding
# Chain of CCL3L1_HUMAN (P16619 24-93): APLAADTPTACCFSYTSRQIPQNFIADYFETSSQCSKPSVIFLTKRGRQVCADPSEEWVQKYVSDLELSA
# Protocol: as §1
# CCL3_HUMAN = target: T3, CCL3_HUMAN; test: Biolayer interferometry (BLI) binding
# Protocol: as §1
# CCL4_HUMAN = target: T4, CCL4_HUMAN; test: Biolayer interferometry (BLI) binding
# Protocol: as §1
# CCL7_HUMAN = CCL7_HUMAN (Homo sapiens, UniProt P80098); test: Biolayer interferometry (BLI) binding
# Chain of CCL7_HUMAN (P80098 24-99): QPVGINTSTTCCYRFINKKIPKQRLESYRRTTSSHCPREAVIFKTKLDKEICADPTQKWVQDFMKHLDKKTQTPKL
# Protocol: as §1
# CCL4L1_HUMAN = target: T5, CCL4L1_HUMAN; test: Biolayer interferometry (BLI) binding
# Protocol: as §1
# chemokines = details: list of chemokines bound, from the literature [18,20-22]; cited from earlier work
molecule,measurement,setting,value
B1,CCL8 binding (bound or not),CCL8_HUMAN,does not bind CCL8
B2,CCL8 binding (bound or not),CCL8_HUMAN,having a CCL8-binding function
B3,CCL8 binding (bound or not),CCL8_HUMAN,having a CCL8-binding function
B4,CCL8 binding (bound or not),CCL8_HUMAN,bound CCL8
B5,Kd,CCL11_HUMAN,21 nM
same,Kd,CCL13_HUMAN,17 nM
same,Kd,CCL14_HUMAN,81 nM
same,Kd,CCL2_HUMAN,14 nM
same,Kd,CCL3L1_HUMAN,2.1 nM
same,Kd,CCL3_HUMAN,3.5 nM
same,Kd,CCL4_HUMAN,8 nM
same,Kd,CCL7_HUMAN,32 nM
same,Kd,CCL8_HUMAN,7 nM
B6,Kd,CCL11_HUMAN,8.5 nM
same,Kd,CCL13_HUMAN,5.7 nM
same,Kd,CCL2_HUMAN,12 nM
same,Kd,CCL4L1_HUMAN,48 nM
same,Kd,CCL4_HUMAN,78 nM
same,Kd,CCL7_HUMAN,5.4 nM
same,Kd,CCL8_HUMAN,1100 nM
B7,Previously described chemokine binding,chemokines,"CCL11, CCL24,; also recorded: CCL26, CCL2,; also recorded: CCL8, CCL7"
B8,Previously described chemokine binding,chemokines,"CCL11, CCL24, and CCL26, CCL2, and CCL8"
B9,Previously described chemokine binding,chemokines,"CCL11, CCL24,; also recorded: CCL26, CCL2,; also recorded: CCL8, CCL7"
B10,Previously described chemokine binding,chemokines,"CCL11, CCL24,; also recorded: CCL26, CCL2,; also recorded: CCL8, CCL7"
B11,Previously described chemokine binding,chemokines,"CCL11, CCL24,; also recorded: CCL26"
B12,Previously described chemokine binding,chemokines,"CCL11, CCL24,; also recorded: CCL26, CCL2,; also recorded: CCL8, CCL7"
B13,Previously described chemokine binding,chemokines,"CCL11, CCL24,; also recorded: CCL26, CCL2,; also recorded: CCL8, CCL7"
